Experimental data from the supplement of paper PMC12338614.
± gives the uncertainty stated by the source.

B1: library; numbered along this chain (parent)
chain: MEVVDPQQLGMFTEGELMSVGMDTFIHRIDSTEVIYQPRRKRAKLIGKYLMGDLLGEGSYGKVKEVLDSETLCRRAVKILKKKKLRRIPNGEANVKKEIQLLRRLRHKNVIQLVDVLYNEEKQKMYMVMEYCVCGMQEMLDSVPEKRFPVCQAHGYFCQLIDGLEYLHSQGIVHKDIKPGNLLLTTGGTLKISDLGVAEALHPFAADDTCRTSQGSPAFQPPEIANGLDTFSGFKVDIWSAGVTLYNITTGLYPFEGDNIYKLFENIGKGSYAIPGDCGPPLSDLLKGMLEYEPAKRFSIRQIRQHSWFRKKHPPAEAPVPIPPSPDTKDRWRSMTVVPYLEDLHGADEDEDLFDIEDDIIYTQDFTVPGQVPEEEASHNGQRRGLPKAVCMNGTEAAQLSTKSRAEGRAPNPARKACSASSKIRRLSACKQQ

Variants of: B1
Assay: STK11 functional score (HeLa growth suppression), rescaled enrichment; synonymous median = 1, nonsense median = 0 (normalised score)
Details: with HeLa; variant type: missense
Experimental: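 Deep mutational scan (TileSeq/POPCode codon randomisation) of full-length codon-optimised STK11 cDNA integrated at a Bxb1 landing pad (AAVS1) in HeLa cells. Restoring functional STK11 suppresses HeLa proliferation. Variant frequencies were measured by NGS before and after about two weeks of growth. The error-corrected enrichment log-ratio was rescaled so that synonymous median = 1 and nonsense median = 0, scores above 1 were compressed, and codon-level and three biological replicate scores were combined; error is the bootstrapped standard error. Scale: synonymous median = 1, nonsense median = 0; below 0.5 = damaging.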

Row | Variant | STK11 functional score
1 | MEVVDPQQLGMFTEGELMSVGMDTFIHRIDSTEVIYQPRRKRAKLIGKYLMGDLLVEGSYGKVKEVLDSETLCRRAVKILKKKKLRRIPNGEANVKKEIQLLRRLRHKNVIQLVDVLYNEEKQKMYMVMEYCVCGMQEMLDSVPEKRFPVCQAHGYFCQLIDGLEYLHSQGIVHKDIKPGNLLLTTGGTLKISDLGVAEALHPFAADDTCRTSQGSPAFQPPEIANGLDTFSGFKVDIWSAGVTLYNITTGLYPFEGDNIYKLFENIGKGSYAIPGDCGPPLSDLLKGMLEYEPAKRFSIRQIRQHSWFRKKHPPAEAPVPIPPSPDTKDRWRSMTVVPYLEDLHGADEDEDLFDIEDDIIYTQDFTVPGQVPEEEASHNGQRRGLPKAVCMNGTEAAQLSTKSRAEGRAPNPARKACSASSKIRRLSACKQQ [G56V] | 0.273 ± 0.08
2 | MEVVDPQQLGMFTEGELMSVGMDTFIHRIDSTEVIYQPRRKRAKLIGKYLMGDLLGEGSYGKVKEVLDSETLCRRAVKILKKKKLRRIPNGEANVKKEIQLLRRLRHKNVIQLVDVLYNEEKQKMYMVMEYCVCGMQEMLDSVPEKRFPVCQAHGYFCQLIDGLEYLHSQGIVHKDIKPGNLLLTTGGTLKISDLGVAEALHPFAADDTCRTSQGSPAFQPPEIANGLDNFSGFKVDIWSAGVTLYNITTGLYPFEGDNIYKLFENIGKGSYAIPGDCGPPLSDLLKGMLEYEPAKRFSIRQIRQHSWFRKKHPPAEAPVPIPPSPDTKDRWRSMTVVPYLEDLHGADEDEDLFDIEDDIIYTQDFTVPGQVPEEEASHNGQRRGLPKAVCMNGTEAAQLSTKSRAEGRAPNPARKACSASSKIRRLSACKQQ [T230N] | 1.2 ± 0.42
3 | MEVVDPQQLGMFTEGELMSVGMDTFIHRIDSTEVIYQPRRKRAKLIGKYLMGDLLGEGSYGKVKEVLDSETLCRRAVKILKKKKLRRIPNGEANVKKEIQLLRRLRHKDVIQLVDVLYNEEKQKMYMVMEYCVCGMQEMLDSVPEKRFPVCQAHGYFCQLIDGLEYLHSQGIVHKDIKPGNLLLTTGGTLKISDLGVAEALHPFAADDTCRTSQGSPAFQPPEIANGLDTFSGFKVDIWSAGVTLYNITTGLYPFEGDNIYKLFENIGKGSYAIPGDCGPPLSDLLKGMLEYEPAKRFSIRQIRQHSWFRKKHPPAEAPVPIPPSPDTKDRWRSMTVVPYLEDLHGADEDEDLFDIEDDIIYTQDFTVPGQVPEEEASHNGQRRGLPKAVCMNGTEAAQLSTKSRAEGRAPNPARKACSASSKIRRLSACKQQ [N109D] | 0.477 ± 0.18
4 | MEVVDPQQLGMFTEGELMSVGMDTFIHRIDSTEVIYQPRRKRAKLIGKYLMGDLLGEGSYGKVKEVLDSETLCRRAVKILKKKKLRRIPNGEANVKKEIQLLRRLRHKNVIQLVDVLYNEEKQKMYMVMEYCVCGMQEMLDSVPEKRFPVCQAHGYFCQLIDGLEYLHSQGIVHKDIKPGNLLLTTGGTLKISDLGVAEALHPFAADDTCRTSQNSPAFQPPEIANGLDTFSGFKVDIWSAGVTLYNITTGLYPFEGDNIYKLFENIGKGSYAIPGDCGPPLSDLLKGMLEYEPAKRFSIRQIRQHSWFRKKHPPAEAPVPIPPSPDTKDRWRSMTVVPYLEDLHGADEDEDLFDIEDDIIYTQDFTVPGQVPEEEASHNGQRRGLPKAVCMNGTEAAQLSTKSRAEGRAPNPARKACSASSKIRRLSACKQQ [G215N] | 1.43 ± 0.19
5 | MEVVDPQQLGMFTEGELMSVGMDTFIHRIDSTEVIYQPRRKRAKLIGKYLMGDLLGEGSYGKVKEVLDSETLCRRAVKILKKKKLRRIPNGEANVKKEIQLLRRLRHKNVIQLVDVLYNEEKQKMYMVMEYCVCGMQEMLDSVPEKRFPVCQAHGYFCQLIDGLEYLHSQGIHHKDIKPGNLLLTTGGTLKISDLGVAEALHPFAADDTCRTSQGSPAFQPPEIANGLDTFSGFKVDIWSAGVTLYNITTGLYPFEGDNIYKLFENIGKGSYAIPGDCGPPLSDLLKGMLEYEPAKRFSIRQIRQHSWFRKKHPPAEAPVPIPPSPDTKDRWRSMTVVPYLEDLHGADEDEDLFDIEDDIIYTQDFTVPGQVPEEEASHNGQRRGLPKAVCMNGTEAAQLSTKSRAEGRAPNPARKACSASSKIRRLSACKQQ [V173H] | 0.45 ± 0.086
6 | MEVVDPQQLGMFTEGELMSVGMDTFIHRIDSTEVIVQPRRKRAKLIGKYLMGDLLGEGSYGKVKEVLDSETLCRRAVKILKKKKLRRIPNGEANVKKEIQLLRRLRHKNVIQLVDVLYNEEKQKMYMVMEYCVCGMQEMLDSVPEKRFPVCQAHGYFCQLIDGLEYLHSQGIVHKDIKPGNLLLTTGGTLKISDLGVAEALHPFAADDTCRTSQGSPAFQPPEIANGLDTFSGFKVDIWSAGVTLYNITTGLYPFEGDNIYKLFENIGKGSYAIPGDCGPPLSDLLKGMLEYEPAKRFSIRQIRQHSWFRKKHPPAEAPVPIPPSPDTKDRWRSMTVVPYLEDLHGADEDEDLFDIEDDIIYTQDFTVPGQVPEEEASHNGQRRGLPKAVCMNGTEAAQLSTKSRAEGRAPNPARKACSASSKIRRLSACKQQ [Y36V] | 0.824 ± 0.12
7 | MEVVDPQQLGMFTEGELMSVGMDTFIHRIDSTEVIYQPRRKRAKLIGKYLMGDLLGEGSYGKVKEVLDSETLCRRAVKILKKKKLRRIPNGEANVKKEIQLLRRLRHKNVIQLVDVLYNEEKQKMYMVMEYCVCGMQEMLVSVPEKRFPVCQAHGYFCQLIDGLEYLHSQGIVHKDIKPGNLLLTTGGTLKISDLGVAEALHPFAADDTCRTSQGSPAFQPPEIANGLDTFSGFKVDIWSAGVTLYNITTGLYPFEGDNIYKLFENIGKGSYAIPGDCGPPLSDLLKGMLEYEPAKRFSIRQIRQHSWFRKKHPPAEAPVPIPPSPDTKDRWRSMTVVPYLEDLHGADEDEDLFDIEDDIIYTQDFTVPGQVPEEEASHNGQRRGLPKAVCMNGTEAAQLSTKSRAEGRAPNPARKACSASSKIRRLSACKQQ [D141V] | 1.18 ± 0.36
8 | MEVVDPQQLGMFTEGELMSVGMDTFIHRIDSTEVIYQPRRKRAKLIGKYLMGDLLGEGSYGKVKEVLDSETLCRRAVKILKKKKLRRIPNGEANVKKEIQLLRRLRHKNVIQLVDVLYNEEKQKMYMVMEYCVCGMQEMLDSVPEKRFPVCQAHGYFCQLIDGLEYLHSQGIVHKDIKPGNLLLTTGGTLKISDLGVAEALHPFAADDTCRTSQGSPAFQPPEIANGLDTFSGFKVDIWSAGVTLYNITTGLYPFEGDNIYKLFENIGKGSYAIPGDCAPPLSDLLKGMLEYEPAKRFSIRQIRQHSWFRKKHPPAEAPVPIPPSPDTKDRWRSMTVVPYLEDLHGADEDEDLFDIEDDIIYTQDFTVPGQVPEEEASHNGQRRGLPKAVCMNGTEAAQLSTKSRAEGRAPNPARKACSASSKIRRLSACKQQ [G279A] | 0.991 ± 0.39
9 | MEVVDPQQLGMFTEGELMSVGMDTFIHRIDSTEVIYQPRRKRAKLIGKYLMGDLLGEGSYGKVKEVLDSETLCRRAVKQLKKKKLRRIPNGEANVKKEIQLLRRLRHKNVIQLVDVLYNEEKQKMYMVMEYCVCGMQEMLDSVPEKRFPVCQAHGYFCQLIDGLEYLHSQGIVHKDIKPGNLLLTTGGTLKISDLGVAEALHPFAADDTCRTSQGSPAFQPPEIANGLDTFSGFKVDIWSAGVTLYNITTGLYPFEGDNIYKLFENIGKGSYAIPGDCGPPLSDLLKGMLEYEPAKRFSIRQIRQHSWFRKKHPPAEAPVPIPPSPDTKDRWRSMTVVPYLEDLHGADEDEDLFDIEDDIIYTQDFTVPGQVPEEEASHNGQRRGLPKAVCMNGTEAAQLSTKSRAEGRAPNPARKACSASSKIRRLSACKQQ [I79Q] | 1.51 ± 0.18
10 | MEVVDPQQLGMFTEGELMSVGMDTFIHRIDSTEVIYQPRRKRAKLIGKYLMGDLLGEGSYGKVKEVLDSETLCRRAVKILKKKKLRRIPNGEANVKKEIQLLRRLRHKNVIQLVDVLYNEEKQKMYMVMEYCVCGMQEMLDSVPEKRFPVCQAHGYFCQLIDGLEYLHSQGIVHKDIKPGNLLLTTGGTLKISDLGVAEALHPFAADDTCRTSQGSPAFQPPEIANGLDTFSGFKVDIWSAGVTLYNITTGLYPFEGDNIYKLFENIGKGSYAIPGDCGPPLSDLLKGMLEYEPAKRFSIRQIRDHSWFRKKHPPAEAPVPIPPSPDTKDRWRSMTVVPYLEDLHGADEDEDLFDIEDDIIYTQDFTVPGQVPEEEASHNGQRRGLPKAVCMNGTEAAQLSTKSRAEGRAPNPARKACSASSKIRRLSACKQQ [Q305D] | 1.36 ± 0.16
11 | MEVVDPQQLGMFTEGELMSVGMDTFIHRIDSTEVIYQPRRKRAKLIGKYLMGDLLGEGSYGKVKEVLDSETLCRRAVKILKKKKLRRIPNGEANVKKEIQLLRRLRHKNVIQLVDVLYNEEKQKMYMVMEYCVCGMQEMLDSVPEKRFPVCQAHGYFCQLIDGLEYLHSQGIVHKDIKPGNLLLTTGGTLKISDLGVAEALHPFAADDTCRTSQGSPAFQPPEIANGLDTFSGFKVDIWSAGVTLYNITTGLYPFEGDNIYKLFENIGKGSYAIPGDCGPPLSDLLKGMLEYEPAKRFSIRQIRQHSWFRKKHPPAEAPVPIPPSPDTKDRWRSMTVVPYLEDLHGADEDEDLFDIEDDIIYTQDFTVPGQVPEDEASHNGQRRGLPKAVCMNGTEAAQLSTKSRAEGRAPNPARKACSASSKIRRLSACKQQ [E375D] | 1.58 ± 0.34
12 | MEVVDPQQLGMFTEGELMSVGMDTFIHRIDSTEVIYQPRRKRAKLIGKYLMGDLLGEGSYGKVKEVLDSETLCRRAVKILKKKKLRRIPNGEANVKKEIQLLRRLRHKNVIQLVDVLYNEEKQKMYMVMEYCVCGMQEMLDSVPEKRFPVCQAHGYFCQLIDGLEYLHSQGIVHKDIKPGNLLLTTGGTLKISDLGVAEALHPFAADDTCRTSQGSPAFQPPEIANGLDTFSGFKVDIWSAGVTLYNITTGLYPFEGDNIYKLFENIGKGSYAIPGDCGPPLSDLLKGMLEYEPAKRFSIRQIRQHSWFRKKHPPAEAPVPIPPSPDTKDRWRSMTVVPYLEDLHGADEDEDLFDIEDDISYTQDFTVPGQVPEEEASHNGQRRGLPKAVCMNGTEAAQLSTKSRAEGRAPNPARKACSASSKIRRLSACKQQ [I361S] | 1.46 ± 0.16
13 | MEVVDPQQLGMFTEGELMSVGMDTFIHRIDSTEVIYQPRRKRAKLIGKYLMGDLLGEGSYGKVKEVLDSETLCRRAVKILKKKKLRRIPNGEANVKKEIQLLRRLRHKNVIQLVDVLYNEEKQKMYMVMEYCVCGMQEMLDSVPEKRFPVCQAHGYFCQLIDGLEYLHSQGIVHKDIKPGNLLLTTGGTLKISDLGVAEALHPFAADDTCRTSQGSPAFQPPEIANGLDTFSGFKVDIWSAGVTLRNITTGLYPFEGDNIYKLFENIGKGSYAIPGDCGPPLSDLLKGMLEYEPAKRFSIRQIRQHSWFRKKHPPAEAPVPIPPSPDTKDRWRSMTVVPYLEDLHGADEDEDLFDIEDDIIYTQDFTVPGQVPEEEASHNGQRRGLPKAVCMNGTEAAQLSTKSRAEGRAPNPARKACSASSKIRRLSACKQQ [Y246R] | 0.128 ± 0.28
14 | MEVVDPQQLGMFTEGELMSVGMDTFIHRIDSTEVIYQPRRKRAKLIGKYLMGDLLGEGSYGKVKEVLDSETLCRRAVKILKKKKLRRIPNGEANVKKEIQLLRRLRHKNVIQLVDVLYNEEKQKMYMVMEYCVCGMQEMLDSVPEKRFPVCQAHGYFCQLIDGLEYLHSQGIVHKDIKPGNLLLTTGGTLKISDLGVAEALHPFAADDTCRTSFGSPAFQPPEIANGLDTFSGFKVDIWSAGVTLYNITTGLYPFEGDNIYKLFENIGKGSYAIPGDCGPPLSDLLKGMLEYEPAKRFSIRQIRQHSWFRKKHPPAEAPVPIPPSPDTKDRWRSMTVVPYLEDLHGADEDEDLFDIEDDIIYTQDFTVPGQVPEEEASHNGQRRGLPKAVCMNGTEAAQLSTKSRAEGRAPNPARKACSASSKIRRLSACKQQ [Q214F] | 1.04 ± 0.3
